Biological target: N,N-dimethylated casein

B1: 3×HA-6His tag fusion transglutaminase (AO090023000250 of Aspergillus oryzae with a C-terminal 3×HA-6His tag) (protein)
chain: MAEETQVLSIQQRIAALNQAQVGQSPQAAASPLLGAQPTPFASRPAPSRQQTINNPPVNSHDSLGDRNEPTGAQPKPVPRPPPIPVQKPRAPPPLPARKASTESAPALPPRRPSGFSRKESRESLGSDVSHSTSTSAGRATIASTTSNNSDTIRSVRAPAWGAKLPPLPPKRQDTKTVQPPPRPRPSPANSSRSLSQGRPSLPPRRESTNSTSTNGNRSTSRPPPPLPSRINSDKSPGPSADTNGKQSTRKLPPPPPSSAALEKIQSSGLAGINRNTENSGKGTNGSVQEPQPNGVPPPVPRATRPDVDLAKLQATKPRLCKTTHSATAPSTMCLKCRDFSAPDAHAAQYPRESLPSYDLAWLARELTAPFPSPTDKARALFTWFHHNIEYDVHSFFNKCVKPSTPAGTLASGLAVCEGYASLFATLATHAGLEAVVVAGHGKGYGYDAPAPGSPIPPVSATGHAWSAVRIDNGQWKLLDACWGAGVVQGPGLPYKKQFNPAMFTDSNDEFGLRHFPSNRSHFFRDDGRPEITWEEYILGNPNSPLSAEQPTIFGDAQNHSIGERSFRPAAKQISIHDPSPLRFQFNLICEHWTLEHHTRAKPGLFLLMVHGLDGRQDDRLPFTHVRGSGPGGGGDFWYVDVPNAKILGAPGQKLAIAVLTSFGDRKDARGVTAEEYRQQVGRVGMAWAYIAEWQLV
- polymerization of casein (SDS-PAGE, Coomassie blue staining): in the presence of the purified or unpurified 3×HA-6His tag fusion protein, polymerization of casein was observed
